Key:
[1] = substrate: Nc1ncnc2c1ncn2[C@@H]1O[C@H](COP(=O)(O)OP(=O)(O)OP(=O)(O)O)[C@@H](O)[C@H]1O; experiment: HPLC-RI, glucose consumption; assay type: biochemical, Escherichia coli; details: glucose 5 mM, 20 mM MgCl2, 25 mM HEPES pH 7.0, 37 °C
[2] = substrate: Nc1nc2c(ncn2[C@@H]2O[C@H](COP(=O)(O)OP(=O)(O)O)[C@@H](O)[C@H]2O)c(=O)[nH]1; experiment: purified protein; assay type: biochemical, Ruminiclostridium cellulolyticum; details: forward, 3 mM glyceraldehyde-3-P, 1.1 mM NAD+, 10 mM MgCl2, 50 mM phosphate pH 7.0, 15 mM cysteine, 37 °C, 1,3-BPG concentration unknown, Hill fit, nH 1.63
[3] = substrate: Nc1ncnc2c1ncn2[C@@H]1O[C@H](COP(=O)(O)OP(=O)(O)O)[C@@H](O)[C@H]1O; experiment: purified protein; assay type: biochemical, Ruminiclostridium cellulolyticum; details: forward, 3 mM glyceraldehyde-3-P, 1.1 mM NAD+, 10 mM MgCl2, 50 mM phosphate pH 7.0, 15 mM cysteine, 37 °C, 1,3-BPG concentration unknown, Hill fit, nH 4.03
[4] = substrate: Nc1nc2c(ncn2[C@@H]2O[C@H](COP(=O)(O)OP(=O)(O)OP(=O)(O)O)[C@@H](O)[C@H]2O)c(=O)[nH]1; experiment: GAPDH-coupled NADH oxidation; assay type: biochemical, Ruminiclostridium cellulolyticum; details: reverse, 3-PG 25 mM, 0.3 mM NADH, 10 mM MgCl2, 50 mM phosphate pH 7.0, 15 mM cysteine, 37 °C
[5] = substrate: Nc1ncnc2c1ncn2[C@@H]1O[C@H](COP(=O)(O)OP(=O)(O)OP(=O)(O)O)[C@@H](O)[C@H]1O; experiment: GAPDH-coupled NADH oxidation; assay type: biochemical, Ruminiclostridium cellulolyticum; details: reverse, 3-PG 4 mM, 0.3 mM NADH, 10 mM MgCl2, 50 mM phosphate pH 7.0, 15 mM cysteine, 37 °C
[6] = substrate: Nc1nc2c(ncn2[C@@H]2O[C@H](COP(=O)(O)OP(=O)(O)O)[C@@H](O)[C@H]2O)c(=O)[nH]1; experiment: HPLC-RI of pyruvate; assay type: biochemical, Ruminiclostridium cellulolyticum; details: PEP 10 mM, no FBP, 20 mM MgCl2, 30 mM KCl, 25 mM HEPES pH 7.0, 37 °C
Text: (§1) HPLC-RI of pyruvate on Pyruvate kinase (PK)

[7] = substrate: Nc1ncnc2c1ncn2[C@@H]1O[C@H](COP(=O)(O)OP(=O)(O)O)[C@@H](O)[C@H]1O; experiment: HPLC-RI of pyruvate; assay type: biochemical, Ruminiclostridium cellulolyticum; details: PEP 10 mM, no FBP, 20 mM MgCl2, 30 mM KCl, 25 mM HEPES pH 7.0, 37 °C, Hill fit, nH 1.41
Text: as §1

[8] = substrate: C=C(OP(=O)(O)O)C(=O)O; experiment: HPLC-RI of pyruvate; assay type: biochemical, Ruminiclostridium cellulolyticum; details: ADP 5 mM, no FBP, 20 mM MgCl2, 30 mM KCl, 25 mM HEPES pH 7.0, 37 °C, Hill fit, nH 1.32
Text: as §1

[9] = substrate: CC(=O)OP(=O)(O)O; experiment: HPLC-RI of products; assay type: biochemical, Ruminiclostridium cellulolyticum; details: ADP 10 mM, 20 mM MgCl2, 25 mM HEPES pH 7.0, 37 °C
Text: (§2) HPLC-RI of products on Acetate kinase (AK)

[10] = substrate: Nc1nc2c(ncn2[C@@H]2O[C@H](COP(=O)(O)OP(=O)(O)O)[C@@H](O)[C@H]2O)c(=O)[nH]1; experiment: HPLC-RI of products; assay type: biochemical, Ruminiclostridium cellulolyticum; details: acetyl-P 5 mM, 20 mM MgCl2, 25 mM HEPES pH 7.0, 37 °C
Text: as §2

[11] = substrate: Nc1ncnc2c1ncn2[C@@H]1O[C@H](COP(=O)(O)OP(=O)(O)O)[C@@H](O)[C@H]1O; experiment: HPLC-RI of products; assay type: biochemical, Ruminiclostridium cellulolyticum; details: acetyl-P 5 mM, 20 mM MgCl2, 25 mM HEPES pH 7.0, 37 °C
Text: as §2

[12] = substrate: Nc1ncnc2c1ncn2[C@@H]1O[C@H](COP(=O)(O)OP(=O)(O)OP(=O)(O)O)[C@@H](O)[C@H]1O; experiment: HPLC-RI of products; assay type: biochemical, Ruminiclostridium cellulolyticum; details: reverse reaction, acetate 10 mM, 20 mM MgCl2, 25 mM HEPES pH 7.0, 37 °C
Text: as §2

[13] = substrate: CC(=O)O; experiment: purified protein; details: reverse reaction, ATP 10 mM, 20 mM MgCl2, 25 mM HEPES pH 7.0, 37 °C
[14] = substrate: O=C(CO)[C@@H](O)[C@H](O)CO; experiment: HPLC-RI of products; assay type: biochemical, Ruminiclostridium cellulolyticum; details: GTP 10 mM, 20 mM MgCl2, 25 mM HEPES pH 7.0, 37 °C
Text: (§3) HPLC-RI of products on Xylulokinase (XK)

[15] = substrate: Nc1nc2c(ncn2[C@@H]2O[C@H](COP(=O)(O)OP(=O)(O)OP(=O)(O)O)[C@@H](O)[C@H]2O)c(=O)[nH]1; experiment: HPLC-RI of products; assay type: biochemical, Ruminiclostridium cellulolyticum; details: xylulose 2.5 mM, 20 mM MgCl2, 25 mM HEPES pH 7.0, 37 °C
Text: as §3

[16] = substrate: Nc1ncnc2c1ncn2[C@@H]1O[C@H](COP(=O)(O)OP(=O)(O)OP(=O)(O)O)[C@@H](O)[C@H]1O; experiment: HPLC-RI of products; assay type: biochemical, Ruminiclostridium cellulolyticum; details: xylulose 2.5 mM, 20 mM MgCl2, 25 mM HEPES pH 7.0, 37 °C
Text: as §3

B1: E. coli glucokinase (GLK) (Escherichia coli K-12) (protein)
chain: MTKYALVGDVGGTNARLALCDIASGEISQAKTYSGLDYPSLEAVIRVYLEEHKVEVKDGCIAIACPITGDWVAMTNHTWAFSIAEMKKNLGFSHLEIINDFTAVSMAIPMLKKEHLIQFGGAEPVEGKPIAVYGAGTGLGVAHLVHVDKRWVSLPGEGGHVDFAPNSEEEAIILEILRAEIGHVSAERVLSGPGLVNLYRAIVKADNRLPENLKPKDITERALADSCTDCRRALSLFCVIMGRFGGNLALNLGTFGGVFIAGGIVPRFLEFFKASGFRAAFEDKGRFKEYVHDIPVYLIVHDNPGLLGSGAHLRQTLGHIL
notes: full-length, C-terminal His tag (pET22b+), E. coli BL21(DE3), Ni-NTA and anion exchange
[1]
  Km: 2.47 ± 0.39 mM

B2: Phosphoglycerate kinase (PGK) (Ruminiclostridium cellulolyticum H10) (protein)
chain: MSMMNKKTIEDIDVAGKRVIVRVDFNVPLDENRKITDDKRIVGALPTIKYLVDKGAKTILVSHLGRPKEGFEDKFSMKPTAVRLGELLGKEIIMAKDVVGEDAKSKAAALKDGEVLMLENVRFHKEETKNDANFAKELASMAEIFVNDAFGTAHRAHASTAGLADYLPAVCGFLIKKEIEFMGKALANPARPFVAILGGAKVSDKIAVIENLIDKVDTLIIGGGMAYTFLKAKGYHIGNSICEEDKIDLAKTLMEKAEAKGVEIMLPIGSMVAQEFKNDTEIKYVPSDAMPDGWMGMDIGSLTIENFAKEIKKAKTVIWNGPMGVFEFPNFATGTKEIAKAVAESGALSIVGGGDSAAAVEQLGFADKITHISTGGGASLEFLEGKELPGIAVLMDKNPRKVIAAGNWKMNKTASEAVEFVNALKPAVADAKNEVVVGVPFVCLPGVVAAAKGSNIKVAAQNMHWEEKGAFTGEVSGPMLADLGVDYVIIGHSERREYFGETNEMINKKAHAIFKYGMTPIICCGETLTQREQGVTADHIRYQIKVALLDLTAEQVSKLVIAYEPIWAIGTGKTATNEQANEVCTIIRELVAELYGSEVAEHVRIQYGGSVNAKNATELFAMSDIDGGLVGGASLKVEDFSIIAKA
notes: full-length, C-terminal His tag (pET28a), E. coli BL21(DE3), Ni-NTA, anion exchange, gel filtration
[2]
  Km: 0.135 ± 0.008 mM
  kcat: 771 ± 20 iu/µmol
[3]
  Km: 0.08 ± 0.002 mM
  kcat: 733 ± 12 iu/µmol
[4]
  Km: 4.66 ± 1.24 mM
  kcat: 2831 ± 348 iu/µmol
[5]
  Km: 0.48 ± 0.07 mM
  kcat: kcat = 4256 ± 148 iu/umol

B3: Pyruvate kinase (PK) (Ruminiclostridium cellulolyticum H10) (protein)
chain: MRRTKIICTLGPASDNEDILRKMMLGGMSLARMNFSHGTHEEHKKRADLVKKIREELNLPIPLLLDTKGPEIRTGKFKNDQAILKENNEFILVNEDILGDETKCTITYKELYKDVSRGSKILINDGLVELEVTEIKNKDIYCRVLNGGAVGNHKGINVPGAEIKLPSLTEQDIDDIKFGIKNDFDIIAASFVRKASDVVEIRKVLEKNGGKDILIIAKIENREGIKNFNDILKVSDGIMVARGDLGVEIPVEEVPIVQKNIIEKCYQNGKPVITATQMLDSMIRNPRPTRAEASDVANAIFDGTSCVMLSGETAAGKYPIETIEVMAKIAEKAEKSMDYWNRFATARTELDTSVTNAISHATCTTALDLKAAAIITVTQSGHTARMIARFRPACPIIATTANPKVQRQLNLSWGVMPYLVGIAKTTDDMFDNGVEKALESGLVKNGDLAVITAGMPAGISGTTNTLKVHIVGRVLVQGVGIGTSSVTGELCVAQNTKEAMDKFTDGNIIVAPFTDNSMLPVIKRASAIVVEEHGQSCHAATVGLALDIPVILGAENATKILKAGSVVTVDSERGLVIRCN
notes: full-length, C-terminal His tag (pET28a), E. coli BL21(DE3), Ni-NTA and anion exchange
[6]
  Km: 0.90 ± 0.14 mM
  kcat: 977 ± 48 iu/µmol
[7]
  Km: 1.87 ± 0.14 mM
  kcat: 9508 ± 328 iu/µmol
[8]
  Km: 1.56 ± 0.02 mM
  kcat: 9212 ± 50 iu/µmol

B4: Acetate kinase (AK) (Ruminiclostridium cellulolyticum H10) (protein)
chain: MKVLVINAGSSSLKYQLIDMKNETVLAKGLCDRIGIDNSFIKQSRGSEEAVILNKELKNHKDAIEAVISALTDDNMGVIKNMSEISAVGHRIVHGGEKFNSSVVIDENVMNAVRECIDVAPLHNPPNIIGIEACQQIMPNIPMVAVFDTTFHSSMPDYAYLYALPYELYEKYGIRKYGFHGTSHKYVAERASAMLDKSLNELKIITCHLGNGSSICAVNKGKSIDTSMGFTPLQGLAMGTRSGTIDPEVVTFLMEKENLDVKGVSKLLNKKSGVLGISGVSSDFRDLHAAADAGNSRAELAIEIFCYGVKKFIGEYIAVMNGVDAIVFTAGVGENNSVVRNMIISDMDFLGIKIDEEKNKLRGQEVDISTADAAVRTLVIPTNEELAIARETVRLVK
notes: as for B3
[9]
  Km: 1.49 ± 0.2 mM
  kcat: 25,112 ± 1755 iu/µmol
[10]
  Km: 1.47 ± 0.13 mM
  kcat: 35,365 ± 1,150 iu/µmol
[11]
  Km: 1.13 ± 0.21 mM
  kcat: 25,437 ± 1668 iu/µmol
[12]
  Km: 1.47 ± 0.17 mM
  kcat: 16.68 ± 0.74 iu/µmol
[13]
  Km: 2.37 ± 0.38 mM
  kcat: kcat = 12.85 ± 0.85 iu/umol

B5: Xylulokinase (XK) (Ruminiclostridium cellulolyticum H10) (protein)
chain: MSFLIGIDLGTSGVKTVLFDEAGKPVASSTVEYPLYQPNLGWAEQDPEEWWKGTCESINNVMLKSGVDKREVKGIGLSGQMHGAVLLDKDDKVLRNAIIWCDQRSAAECDEITDLIGRERLIEITANPALTGFTASKIMWVKNNEPQIFEKIAKILLPKDYIRFRLTGEYATEVSDASGMQLMNIAKREWSIEVLDKLGLSTSMLGKMYESQEVTGKVTSSAADQTGLNAGTIVVGGGGDQAAGAVGNGIVKSGIVSSTIGTSGVVFAYTDKLTIDPLGRVHTFCHAVPNTYHVMGVTQGAGLSLKWFRDNFCMEEMMTSELSDIDVYKLLDAEAETIKPCSDGLVYLPYLMGERTPHLDPNAKGVFFGLTAKHTKPHFIRSIMEGVTFSLRDCLEIIKGMGVDVSEVRASGGGGKSGIWRQMQADVFGTNINRIRSDEGPALGVAILAGVGAGIYDSVPQACEEVIKVKDTLAPVEDRIKKYDDFYKLYTKLYKSLKDDFNQLSTILK
notes: as for B3
[14]
  Km: 0.30 ± 0.07 mM
  kcat: 8788 ± 375 iu/µmol
[15]
  Km: 0.12 ± 0.02 mM
  kcat: 6540 ± 177 iu/µmol
[16]
  Km: 1.18 ± 0.18 mM
  kcat: 6653 ± 281 iu/µmol

Source: PMC11955521, “A GTP-driven central carbon metabolism in the cellulolytic bacterium Ruminiclostridium cellulolyticum” (Communications Biology, 2025)
